In patent CN1649900A (dated 2005):
Where no end group is shown, it is not given here. [ ]: non-standard residue; d: D form. sY = N[C@@H](Cc1ccc(OS(=O)(=O)O)cc1)C(=O)O

B1: Y1 scFv (human single-chain Fv antibody fragment Y1) (scFv)
scFv: EVQLVESGGGVVRPGGSLRLSCAASGFTFDDYGMSWVRQAPGKGLEWVSGINWNGGSTGYADSVKGRFTISRDNAKNSLYLQMNSLRAEDTAVYYCARMRAPVIWGQGTLVTVSRGGGGSGGGGSGGGGSSELTQDPAVSVALGQTVRITCQGDSLRSYYASWYQQKPGQAPVLVIYGKNNRPSGIPDRFSGSSSGNTASLTITGAQAEDEADYYCNSRDSSGNHVVFGGGTKLTVLGAAAEQKLISEEDLNGAA
notes: Clone from the Nissim I phage display library; Used biotinylated in Western blots; detected with rabbit anti-scFv or anti-VL in FACS and ELISA; also called scFv Y1; scFv-Y1

Key:
[1] = target: T1, PSGL-1 (P-selectin glycoprotein ligand-1, CD162) on KG-1 cells or in KG-1 membrane preparations (human, UniProt Q14242 42-412, sulfated tyrosines in the N-terminal region); assay: Western blot
T1 construct: whole, on cells; entries on KG-1 cells, lysates and membrane fractions are written against this molecule; also called KG-1细胞上Y1配体
T1 sequence (looked up): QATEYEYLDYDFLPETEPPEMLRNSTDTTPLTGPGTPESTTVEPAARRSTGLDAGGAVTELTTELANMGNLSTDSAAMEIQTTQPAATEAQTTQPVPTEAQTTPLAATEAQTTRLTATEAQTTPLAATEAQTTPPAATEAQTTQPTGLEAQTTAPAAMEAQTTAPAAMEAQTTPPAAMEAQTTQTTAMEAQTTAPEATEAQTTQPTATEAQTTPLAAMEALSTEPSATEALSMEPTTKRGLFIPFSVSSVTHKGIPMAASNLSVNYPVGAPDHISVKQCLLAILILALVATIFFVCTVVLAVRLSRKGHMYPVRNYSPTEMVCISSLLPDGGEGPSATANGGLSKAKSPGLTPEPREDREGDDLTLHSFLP

[2] = target: T2, human lumican from plasma (human, UniProt P51884 19-338); assay: binding to human plasma proteins
T2 construct: also called H P-配体2
T2 sequence (looked up): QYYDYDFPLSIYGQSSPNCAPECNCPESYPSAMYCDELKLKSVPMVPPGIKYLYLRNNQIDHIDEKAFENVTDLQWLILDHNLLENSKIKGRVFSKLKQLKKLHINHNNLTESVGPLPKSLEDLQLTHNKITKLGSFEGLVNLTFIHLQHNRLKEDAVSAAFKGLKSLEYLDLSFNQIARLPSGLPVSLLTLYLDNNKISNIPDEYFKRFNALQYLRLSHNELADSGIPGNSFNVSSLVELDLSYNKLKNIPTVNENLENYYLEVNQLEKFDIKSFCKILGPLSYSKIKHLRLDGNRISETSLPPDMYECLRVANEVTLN

[3] = target: T1, PSGL-1 (P-selectin glycoprotein …); assay: FACS on KG-1 cells
[4] = target: B1; assay: competition ELISA, Y1 scFv on glycocalicin, peptide 1, 10, 100 μM
[5] = target: T1, PSGL-1 (P-selectin glycoprotein …); assay: radioreceptor assay, ELISA and FACS
[6] = target: T1, PSGL-1 (P-selectin glycoprotein …); assay: second radioreceptor competition on KG-1 cells, labelled CONY1
[7] = target: T1, PSGL-1 (P-selectin glycoprotein …); assay: radioreceptor competition on KG-1 cells, tracer 125I-Y1-IgG 2 ng/tube

Binder: B1
- binding result [1]: binds
- binding result [2]: binds

B2: Y17 scFv (scFv)
scFv: EVQLVESGGGVVRPGGSLRLSCAASGFTFDDYGMSWVRQAPGKGLEWVSGINWNGGSTGYADSVKGRFTISRDNAKNSLYLQMNSLRAEDTAVYYCARLTHPYFWGQGTLVTVSRGGGGSGGGGSGGGGSSELTQDPAVSVALGQTVRITCQGDSLRSYYASWYQQKPGQAPVLVIYGKNNRPSGIPDRFSGSSSGNTASLTITGAQAEDEADYYCNSRDSSGNHVVFGGGTKLTVLGAAAEQKLISEEDLNGAA
notes: Second scFv clone selected on platelets
- binding result [3]: binds

Binder: VRPEHPAETEYESLYPEDDL [F-YY, non-sulfated peptide from the fibrinogen γ prime chain]
- binding result [4]: no binding (tested: 100μM)

B3: S-S Y1 dimer (disulfide-bridged dimer of Y1 scFv with a cysteine added at the carboxy terminus) (other)
chain: EVQLVESGGGVVRPGGSLRLSCAASGFTFDDYGMSWVRQAPGKGLEWVSGINWNGGSTGYADSVKGRFTISRDNAKNSLYLQMNSLRAEDTAVYYCARMRAPVIWGQGTLVTVSRGGGGSGGGGSGGGGSSELTQDPAVSVALGQTVRITCQGDSLRSYYASWYQQKPGQAPVLVIYGKNNRPSGIPDRFSGSSSGNTASLTITGAQAEDEADYYCNSRDSSGNHVVFGGGTKLTVLGAAAEQKLISEEDLNGAAC
- fold binding over Y1 scFv monomer [5]: ≥ 20 fold
- Kd [6]: 50 nM
- fold higher affinity than CONY1 [6]: 20 fold
- Kd [7]: 40 nM
- fold higher avidity than CONY1 [7]: 30 fold
- fold lower avidity than the whole Y1 antibody [7]: 2 fold

B4: Y1-IgG (full-size IgG1 lambda antibody built from the Y1 Fv) (antibody)
chain 1: EVQLVESGGGVVRPGGSLRLSCAASGFTFDDYGMSWVRQAPGKGLEWVSGINWNGGSTGYADSVKGRFTISRDNAKNSLYLQMNSLRAEDTAVYYCARMRAPVIWGQGTLVTVSR
chain 2: SELTQDPAVSVALGQTVRITCQGDSLRSYYASWYQQKPGQAPVLVIYGKNNRPSGIPDRFSGSSSGNTASLTITGAQAEDEADYYCNSRDSSGNHVVFGGGTKLTVLG
- Kd [7]: ~20 nM

B5: CONY1, Y1 scFv monomer in which the myc tag is deleted or replaced by Lys-Ala-Lys (KAK) (scFv)
scFv: EVQLVESGGGVVRPGGSLRLSCAASGFTFDDYGMSWVRQAPGKGLEWVSGINWNGGSTGYADSVKGRFTISRDNAKNSLYLQMNSLRAEDTAVYYCARMRAPVIWGQGTLVTVSRGGGGSGGGGSGGGGSSELTQDPAVSVALGQTVRITCQGDSLRSYYASWYQQKPGQAPVLVIYGKNNRPSGIPDRFSGSSSGNTASLTITGAQAEDEADYYCNSRDSSGNHVVFGGGTKLTVLG
notes: also called CONY1 scFv; Y1-kak
- Kd [6]: ~1000 nM

Binder: VRPEHPAETE[sY]ESL[sY]PEDDL [F-Y*Y*, sulfated peptide from the fibrinogen γ prime chain]
- binding result [4]: no binding (tested: 100μM)
